Test results published in patent US5849703A, “Pre-formed anticoagulant heparin/TFPI complexes” (G. D. Searle & Co., priority 1996, dated 1998).
Several values for one entry are separate records, joined by “and”; a condition that tells them apart may be missing. Identical values can stand only once. Entries after “also recorded” stand apart in the source; their conditions may differ. Like-named read-outs stand apart in the source and are kept apart here.

Experiments:
[1] = test system: TF-induced clotting in human plasma; assay: Dilute prothrombin time (dPT) assay: TF-induced clotting of human plasma; type: biochemical; details: 1:4 dilution of Simplastin
Procedure: dPT assay was carried out using 1:4 dilution of Simplastin®. Closed square and closed triangle on the abscissa indicate the clotting times of the plasma supplemented with control buffer and 2 μg/ml FL-TFPI, respectively.
dPT assay was carried out using 1:40 dilution of Simplastin®. Closed square and closed triangle on the abscissa indicate the clotting times of the plasma supplemented with control buffer and 0.3 μg/ml FL-TFPI, respectively.
(§1) Rabbit brain thromboplastin (TF;Simplastin®) was diluted to varying degrees ranging from 1:4 to 1:50 with a buffer containing 12.5 mM CaCl2, 75 mM NaCl, 0.5 mg/ml bovine serum albumin, and 0.02% NaN3, for determination of TF-induced clotting time in human plasma. Fifty (50) μl of human plasma were mixed with 50 μl of DB, heparin, TFPI, or preformed complexes of heparin/TFPI in DB in the well of a Fibrometer at 37° for 1 min. Two hundred (200) μl of appropriately diluted thromboplastin reagent were then added and the time to clotting was determined.
(§2) The dPTs reported here are the average of 2 to 8 determinations, depending on the length of the clotting time. When the clotting time was short (<100 sec), the variations between determinations are small and 2-4 assay values were averaged for each data point. When the clotting time is long (>100 sec), the variations between determinations are larger and 5-8 assay values are averaged for each data point. […] The concentrations of heparin and TFPI are expressed as units or μg per ml of plasma, not as that in the final assay mixture.
In one-stage TF-induced plasma clotting assay, clotting time is dependent on the concentration of TF and the concentrations of anticoagulants present. […] In the absence of added anticoagulants, the addition of this concentration of TF caused the plasma to clot in 20 sec (closed square).

[2] = test system: TF-induced clotting of TFPI-depleted plasma; assay: dPT assay in TFPI-depleted plasma (1:50 dilution of Simplastin); type: biochemical, human; details: for prolongation of clotting time: increasing concentrations, alone, 1:50 dilution of Simplastin
Procedure: FIG. 2B: Effects of CT-TFPI (.quadrature.), heparin (.circle-solid.), and sequential addition of CT-TFPI and heparin (.tangle-solidup.) on clotting time. dPTs were determined as described in METHODS using 1:50 dilution of Simplastin®.
Pooled plasma was prepared by mixing four (4) units of individual plasmas, and TFPI-depleted pooled plasma was obtained by passing the pooled plasma through a rabbit anti-human TFPI-Ig Sepharose® 4B column as described previously [(Wun, J. Biol. Chem. 265:16096-16101 (1990)].
as §1, §2
In the present work, FL-TFPI and CT-TFPI were separated by Mono S chromatography as described before [Wun, et al., Thromb. Haemost. 68, 54-59 (1992)], and the effects of heparin, FL-TFPI, or CT-TFPI alone, and combinations of heparin/FL-TFPI, and heparin/CT-TFPI were compared. FIGS. 2A and B show the results.

[3] = test system: extrinsic and the common pathways; assay: Prothrombin time (PT) assay; type: biochemical, human
Procedure: (§3) Measurement of PT and APTT are as described in METHODS. PT and APTT ratios are calculated by dividing the clotting times in the presence of the indicated amounts of FL-TFPI or heparin by the clotting times in the absence of anticoagulants.
Ninety (90) μl of plasma were mixed with 10 μl of DB (dilution buffer containing 10 mM Tris/HCl, pH 7.4, 150 mM NaCl, 1 mM Na2 SO4, 1 mg/ml bovine serum albumin, and 0.02% NaN3), FL-TFPI solution, or heparin solution in the Fibrometer well at 37° for 1 min. Two hundred (200) μl of Simplastin® were then added and the time to clotting was recorded.
(§4) PT is a global test that primarily measures the functionality of the extrinsic and the common pathways; while APTT is a procedure which evaluates that of the intrinsic and the common pathways. The individual effects of heparin and FL-TFPI on PT and APTT were examined to determine the primary sites of their actions.

[4] = Pharmacokinetics following bolus injection in rabbits; type: in vivo, rabbit; details: for tα: bolus FL-TFPI 1.5 mg/kg or heparin 1.9 mg/kg/FL-TFPI 1.5 mg/kg; for % AUCα / % AUCβ / Clearence / Vd / tβ: bolus
Procedure: The pharmacokinetics study was carried out as described in METHODS. Rabbits were injected with a bolus of FL-TFPI (1.5 mg/kg) or heparin (1.9 mg/kg)/FL-TFPI (1.5 mg/kg) complex.
(§5) Plasma levels of TFPI antigen were measured by PCFIA assay. Functional TFPI activity in the plasma was also measured by dPT assay using each rabbit's own control plasma supplemented with known concentrations of FL-TFPI as a reference standard [Palmier, et al., Thromb. Haemost. 68, 33-36 (1992)]. Data from individual animals were fitted to the general bi-exponential equation: […]
where C is the concentration of TFPI at time t, and A and B are the intercept values (to) extrapolated from a and b, the first order elimination rate constants.

[5] = Plasma levels of TFPI following bolus injection and constant infusion; type: in vivo, rabbit; details: infusion of 11.4 μg/kg/min FL-TFPI, 4 h; PCFIA
Procedure: For FL-TFPI, a bolus of 0.5 mg/kg was injected through the femoral vein followed by constant infusion of FL-TFPI (11.4 μg/kg/min).
For heparin/FL-TFPI, a bolus of preformed heparin (0.24 mg/kg)/FL-TFPI (0.19 mg/kg) complex was injected followed by constant infusion of heparin (5.4 μg/kg/min)/FL-TFPI (4.3 μg/kg/min) complex. Infusions were carried out over a 4-h period. Plasma levels of TFPI were measured by PCFIA assay.
For constant infusion studies, a bolus of FL-TFPI (0.5 mg/kg) or pre-formed heparin (0.24 mg/kg)/FL-TFPI (0.19 mg/kg) complex was injected through the femoral vein, followed by constant infusion of FL-TFPI (11.4 μg/kg/min)or heparin (5.4 μg/kg/min)/FL-TFPI (4.3 μg/kg/min) complex over a 4-hr period. Blood collection and plasma sample preparation were carried out as described above.
as §5

[6] = pH 7.4
Text: (§6) The solubility of non-glycosylated recombinant E. coli-derived FL-TFPI [Diaz-Collier, et al., Thromb.

[7] = cited from earlier work
[8] = test system: intrinsic and the common pathways; assay: Activated partial thromboplastin time (APTT) assay; type: biochemical, human
Procedure: as §3
Ninety (90) μl of plasma were mixed with 10 μl of DB, FL-TFPI solution, or heparin solution in the Fibrometer well at 37° for 1 min. One hundred (100) μl of Dade's activated cephaloplastin reagent were added and the mixture was incubated for exactly 2 min. A calcium solution (100 μl of 25 mM CaCl2) was added and the time to clotting was recorded.
as §4

[9] = test system: fibrin-dependent glomerulonephritis model; details: clinical dose of heparin; cited from earlier work
factor Xa = details: purified system; cited from earlier work
[10] = Solubility of FL-TFPI and heparin/FL-TFPI complexes
Text: as §6

[11] = bolus injection, rabbits, PCFIA
[12] = individual rabbits #1-#3, PCFIA
[13] = up to 40 μg/ml N-acetyl heparin (FIG. 5)

FL-TFPI: Recombinant full-length (FL-) TFPI, tissue factor pathway inhibitor
prolongation of the clotting time ([1]; 2 μg/ml FL-TFPI alone): 58 s
clotting time ([1]; 2 μg/ml FL-TFPI alone (FIG. 3)): 78 s
clotting time ([1]; 2 μg/ml FL-TFPI alone (FIG. 5)): 90 s
clotting time ([1]; 2 μg/ml FL-TFPI alone (FIG. 6)): 82 s
potency in prolonging the clotting time compared with CT-TFPI ([2]; FIG. 2): much more potent in prolonging the clotting time than CT-TFPI; also recorded: far more potent than CT-TFPI in prolonging the TF-induced clotting time; also recorded: far more potent than CT-TFPI alone or in combination with heparin
prolongation of clotting time [2]: increasingly prolong the clotting time in a moderate manner
PT ratio increase compared with APTT ratio ([3]; FIG. 1): much greater increase of the PT ratio than the APTT ratio
primary site of action ([3]; from PT and APTT ratios): primarily affects the extrinsic pathway
clearance of TFPI antigen (PCFIA) vs functional TFPI activity (dPT) ([4]; bolus injection, rabbits): closely matched
faster overall clearance relative to heparin/FL-TFPI complex ([4]; bolus injection, rabbits): ~ 2.6 fold
overall clearance ([4]; bolus injection, rabbits): 5.7 mL/min/kg
t1/2α [4, 11]: 1.4 min
t1/2β [4, 11]: 92 min
tα [4, 12]: 1.5 min and 1.7 min and 1.0 min
% AUCα [4, 12]: 9.4% and 7.2% and 7.9%
% AUCβ [4, 12]: 90.6% and 92.8% and 92.1%
Clearence [4, 12]: 5.9 mL/min/kg and 4.3 mL/min/kg and 6.8 mL/min/kg
Vd [4, 12]: 0.118 L/kg and 0.115 L/kg
tβ [4, 12]: 89 min and 96 min and 91 min
tα ([4]; mean of 3 rabbits (±SEM on separate line), PCFIA): 1.4 min
% AUCα ([4]; mean of 3 rabbits, PCFIA): 8.2%
% AUCβ ([4]; mean of 3 rabbits, PCFIA): 92%
Clearence ([4]; mean of 3 rabbits, PCFIA): 5.7 mL/min/kg
Vd ([4]; mean of 3 rabbits, PCFIA): 0.117 L/kg
tβ ([4]; mean of 3 rabbits, PCFIA): 92 min
% AUCβ ([4]; mean of 3 rabbits, PCFIA, listed as TFPI): 91.8%
steady state plasma level of TFPI [5]: ~ 2 μg/ml
solubility [6]: exceeds 5 mg/ml
NaCl required for dissociation from heparin [7]: 0.6 to 1 M

N-acetyl heparin
clotting time [1, 13]: ~ 18 sec
clotting time (in words) [1, 13]: did not alter the clotting time

heparin
prolongation of the clotting time ([1]; 10 μg/ml heparin alone): 26 s
clotting time ([1]; heparin beyond 1.25 μg/ml (FIG. 3)): progressively prolonged
clotting time ([1]; heparin up to 1.25 μg/ml (FIG. 3)): did not alter the clotting time
prolongation of clotting time [2]: increasingly prolong the clotting time in a moderate manner
APTT ratio increase compared with PT ratio ([8]; FIG. 1): much greater increase of APTT ratio than PT ratio
primary site of action ([8]; from PT and APTT ratios): mainly inhibits the intrinsic pathway
beneficial effect on the disease process [9]: did not produce a beneficial effect on the disease process
rate of factor Xa inhibition by TFPI (factor Xa): enhances the rate of factor Xa inhibition by TFPI in a concentration dependent and biphasic manner

non-glycosylated recombinant E. coli-derived FL-TFPI: non-glycosylated recombinant E. coli-derived FL-TFPI
solubility ([10]; Dulbecco's phosphate-buffered saline, estimated): approximately 200 μg/ml
solubility ([10]; saline solutions, compared with glycosylated FL-TFPI): even lower
